Laboratory results reported in PMC9631991.

Target: biotinylated pro-LC3B (residues 1-125) (human) (UniProt Q9GZQ8)
Assay: SPR; biotinylated LC3B constructs immobilised on NeutrAvidin-coated CM5 chips; ATG4b proteins flowed over, 0.2 nM~20 uM; 1X PBS, 0.5 mM TCEP, 0.05% Tween 20, 20 °C; Biacore 4000; 1:1 binding model

ATG4b WT (full-length ATG4b) (from UniProt Q9Y4P1 1-393) (enzyme)
Kd: 321 nM
